T1: C3G (full-length, residues 4-1077) (human, UniProt Q13905-1 4-1077)
T1 construct: also called C3G WT; RapGEF1; source: E. coli BL21 (DE3), purified (IMAC, TEV digestion, reversed IMAC, SEC); not shown: His, N-terminal, cleaved; Halo, N-terminal, cleaved
T1 sequence (looked up): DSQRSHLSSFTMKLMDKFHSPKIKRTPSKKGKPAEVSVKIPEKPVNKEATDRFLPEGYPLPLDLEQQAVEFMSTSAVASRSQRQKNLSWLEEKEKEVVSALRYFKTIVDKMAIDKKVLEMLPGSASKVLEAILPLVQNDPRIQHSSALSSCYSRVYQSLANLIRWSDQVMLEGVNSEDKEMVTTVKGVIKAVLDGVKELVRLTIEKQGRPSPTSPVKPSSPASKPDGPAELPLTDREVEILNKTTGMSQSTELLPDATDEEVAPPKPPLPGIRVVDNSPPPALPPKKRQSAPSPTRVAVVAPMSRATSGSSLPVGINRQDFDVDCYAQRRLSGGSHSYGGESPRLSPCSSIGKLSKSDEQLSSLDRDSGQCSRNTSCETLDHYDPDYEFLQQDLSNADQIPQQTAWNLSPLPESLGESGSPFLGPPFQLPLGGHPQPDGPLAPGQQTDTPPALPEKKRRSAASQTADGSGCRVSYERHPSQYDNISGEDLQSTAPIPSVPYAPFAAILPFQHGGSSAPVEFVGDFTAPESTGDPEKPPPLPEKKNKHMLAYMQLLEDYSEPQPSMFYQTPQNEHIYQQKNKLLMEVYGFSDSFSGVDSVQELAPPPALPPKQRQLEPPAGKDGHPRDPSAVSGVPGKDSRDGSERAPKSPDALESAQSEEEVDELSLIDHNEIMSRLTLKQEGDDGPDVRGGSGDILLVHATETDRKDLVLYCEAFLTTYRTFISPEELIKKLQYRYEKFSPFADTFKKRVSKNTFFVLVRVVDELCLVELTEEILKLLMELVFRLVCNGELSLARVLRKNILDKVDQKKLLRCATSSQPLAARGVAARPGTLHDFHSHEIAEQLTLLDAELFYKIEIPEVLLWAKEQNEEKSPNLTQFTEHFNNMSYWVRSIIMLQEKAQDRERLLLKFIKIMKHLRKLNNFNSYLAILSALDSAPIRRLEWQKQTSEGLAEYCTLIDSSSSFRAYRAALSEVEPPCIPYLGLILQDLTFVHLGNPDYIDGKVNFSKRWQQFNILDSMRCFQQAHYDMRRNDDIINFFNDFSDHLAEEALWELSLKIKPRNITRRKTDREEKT

T2: C3G full-length wild type (human, isoform a, residues 4-1077) (human, UniProt Q13905-1 4-1077)
T2 sequence (looked up): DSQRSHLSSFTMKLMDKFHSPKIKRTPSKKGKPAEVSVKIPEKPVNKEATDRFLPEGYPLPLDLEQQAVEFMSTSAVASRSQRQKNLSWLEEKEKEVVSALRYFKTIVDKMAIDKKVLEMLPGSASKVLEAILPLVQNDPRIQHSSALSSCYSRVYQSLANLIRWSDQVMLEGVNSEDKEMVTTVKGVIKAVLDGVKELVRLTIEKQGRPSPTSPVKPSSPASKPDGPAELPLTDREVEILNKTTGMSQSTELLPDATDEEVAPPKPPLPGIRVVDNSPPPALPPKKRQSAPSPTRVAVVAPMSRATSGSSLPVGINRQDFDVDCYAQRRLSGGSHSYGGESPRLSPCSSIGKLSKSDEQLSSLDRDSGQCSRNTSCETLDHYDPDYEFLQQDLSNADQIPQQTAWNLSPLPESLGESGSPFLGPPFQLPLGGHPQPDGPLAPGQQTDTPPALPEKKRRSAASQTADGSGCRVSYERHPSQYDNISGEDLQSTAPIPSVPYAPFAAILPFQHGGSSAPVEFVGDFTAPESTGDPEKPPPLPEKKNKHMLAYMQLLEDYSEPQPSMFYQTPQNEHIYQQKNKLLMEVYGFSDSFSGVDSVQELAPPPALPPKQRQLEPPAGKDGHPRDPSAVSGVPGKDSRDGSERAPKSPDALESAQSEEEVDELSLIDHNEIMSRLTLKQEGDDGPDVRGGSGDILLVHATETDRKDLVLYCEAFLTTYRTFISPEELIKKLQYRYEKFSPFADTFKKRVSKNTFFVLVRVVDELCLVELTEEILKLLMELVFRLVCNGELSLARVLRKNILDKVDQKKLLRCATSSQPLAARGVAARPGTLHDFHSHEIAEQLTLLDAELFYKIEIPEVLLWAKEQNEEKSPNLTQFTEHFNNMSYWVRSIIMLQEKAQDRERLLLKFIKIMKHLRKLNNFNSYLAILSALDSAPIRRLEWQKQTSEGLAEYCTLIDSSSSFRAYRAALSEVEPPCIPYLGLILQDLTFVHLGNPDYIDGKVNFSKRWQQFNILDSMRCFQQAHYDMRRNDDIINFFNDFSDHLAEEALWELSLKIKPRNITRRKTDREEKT

T3: Src-phosphorylated C3G (pC3G), wild type (human, UniProt Q13905-1 4-1077, phosphotyrosines (phosphorylated in vitro by Src; sites not stated))
T3 sequence (looked up): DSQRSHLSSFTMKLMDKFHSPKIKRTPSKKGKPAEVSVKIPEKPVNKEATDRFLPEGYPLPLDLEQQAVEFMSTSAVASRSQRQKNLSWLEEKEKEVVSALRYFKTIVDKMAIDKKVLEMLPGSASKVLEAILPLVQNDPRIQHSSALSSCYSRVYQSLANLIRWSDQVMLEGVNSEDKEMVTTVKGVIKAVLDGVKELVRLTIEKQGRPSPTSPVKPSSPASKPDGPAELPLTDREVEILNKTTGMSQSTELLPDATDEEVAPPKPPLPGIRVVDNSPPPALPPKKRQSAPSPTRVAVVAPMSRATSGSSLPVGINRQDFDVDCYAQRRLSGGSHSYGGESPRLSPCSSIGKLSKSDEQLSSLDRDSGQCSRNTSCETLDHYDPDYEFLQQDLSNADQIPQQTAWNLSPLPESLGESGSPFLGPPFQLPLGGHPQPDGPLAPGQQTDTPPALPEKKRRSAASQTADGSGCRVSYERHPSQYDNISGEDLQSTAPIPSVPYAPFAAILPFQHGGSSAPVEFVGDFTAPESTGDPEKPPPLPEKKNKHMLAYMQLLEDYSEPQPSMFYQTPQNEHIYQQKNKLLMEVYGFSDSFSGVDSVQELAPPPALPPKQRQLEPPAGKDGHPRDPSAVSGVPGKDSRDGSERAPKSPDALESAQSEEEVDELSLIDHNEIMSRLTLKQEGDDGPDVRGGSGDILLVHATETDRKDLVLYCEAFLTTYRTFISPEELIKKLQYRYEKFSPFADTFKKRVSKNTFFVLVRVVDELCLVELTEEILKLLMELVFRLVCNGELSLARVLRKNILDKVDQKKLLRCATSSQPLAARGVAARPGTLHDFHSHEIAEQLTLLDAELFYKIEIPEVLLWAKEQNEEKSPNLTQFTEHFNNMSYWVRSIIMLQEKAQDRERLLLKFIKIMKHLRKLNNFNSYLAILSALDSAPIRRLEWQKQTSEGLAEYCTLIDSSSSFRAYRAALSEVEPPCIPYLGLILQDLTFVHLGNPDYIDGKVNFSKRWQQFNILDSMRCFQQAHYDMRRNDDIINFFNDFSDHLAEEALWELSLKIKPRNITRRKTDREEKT


Experiments:
[1] = target: T1, C3G (full-length, residues 4-1077); test: ITC; C3G or pC3G in the cell titrated with the Crk protein, 25 °C, 300 mM NaCl, pH 7.5; global fit of three titrations with SEDPHAT, three symmetric binding sites, microscopic kd; details: both partners purified
[2] = target: T2, C3G full-length wild type (human, …); test: cell-based or functional assay
[3] = target: T3, Src-phosphorylated C3G (pC3G), wild type; test: cell-based or functional assay
[4] = target: T4, CrkL, full-length (human) (human, UniProt P46109 1-303); test: ITC; single-PRM mutants of C3G in the cell titrated with full-length CrkL or CrkL-SH3N; 25 °C; 1:1 model in SEDPHAT; N is the competent fraction of C3G; details: both partners purified
T4 construct: Monomer by sedimentation velocity and DLS (theoretical mass 33.7 kDa); Purification 'in a similar manner' as C3G would include TEV cleavage of the tag; also called Crk-like protein; wild type CrkL; source: E. coli BL21 (DE3), purified (His-tagged, purified in a similar manner as C3G)

| Binder | Kd [1] | AC50 of the dose-response activation of the GEF activity of C3G (1 µM) on Rap1b:mant-dGDP [2] | kmax of the dose-response activation of the GEF activity of C3G (1 µM) on Rap1b:mant-dGDP [2] | AC50 of the dose-response activation of the GEF activity of pC3G (0.2 µM) on Rap1b:mant-dGDP [3] | kmax of the dose-response activation of the GEF activity of pC3G (0.2 µM) on Rap1b:mant-dGDP [3] | Kd [4] |
| --- | --- | --- | --- | --- | --- | --- |
| CrkII (full-length) (natural protein, human, UniProt P46108-1 1-304, looked up, human CrkII, residues 1-304, in pETEV15b; source: E. coli BL21 (DE3), purified (IMAC, TEV digestion, SEC); not shown: His, N-terminal, cleaved) MAGNFDSEERSSWYWGRLSRQEAVALLQGQRHGVFLVRDSSTSPGDYVLSVSENSRVSHYIINSSGPRPPVPPSPAQPPPGVSPSRLRIGDQEFDSLPALLEFYKIHYLDTTTLIEPVSRSRQGSGVILRQEEAEYVRALFDFNGNDEEDLPFKKGDILRIRDKPEEQWWNAEDSEGKRGMIPVPYVEKYRPASASVSALIGGNQEGSHPQPLGGPEPGPYAQPSVNTPLPNLQNGPIYARVIQKRVPNAYDKTALALEVGELVKVTKINVSGQWEGECNGKRGHFPFTHVRLLDQQNPDEDFS | 2700 nM |  |  |  |  |  |
| CrkII (human) (natural protein, UniProt P46108-1 1-304, looked up) MAGNFDSEERSSWYWGRLSRQEAVALLQGQRHGVFLVRDSSTSPGDYVLSVSENSRVSHYIINSSGPRPPVPPSPAQPPPGVSPSRLRIGDQEFDSLPALLEFYKIHYLDTTTLIEPVSRSRQGSGVILRQEEAEYVRALFDFNGNDEEDLPFKKGDILRIRDKPEEQWWNAEDSEGKRGMIPVPYVEKYRPASASVSALIGGNQEGSHPQPLGGPEPGPYAQPSVNTPLPNLQNGPIYARVIQKRVPNAYDKTALALEVGELVKVTKINVSGQWEGECNGKRGHFPFTHVRLLDQQNPDEDFS |  | 65700 nM | 7200 M⁻¹ s⁻¹ | 2.6 µM | 0.0223 s^-1 µM^-1 |  |
| C3G-PAAA (natural protein) DSQRSHLSSFTMKLMDKFHSPKIKRTPSKKGKPAEVSVKIPEKPVNKEATDRFLPEGYPLPLDLEQQAVEFMSTSAVASRSQRQKNLSWLEEKEKEVVSALRYFKTIVDKMAIDKKVLEMLPGSASKVLEAILPLVQNDPRIQHSSALSSCYSRVYQSLANLIRWSDQVMLEGVNSEDKEMVTTVKGVIKAVLDGVKELVRLTIEKQGRPSPTSPVKPSSPASKPDGPAELPLTDREVEILNKTTGMSQSTELLPDATDEEVAPPKPPLPGIRVVDNSPPPALPPKKRQSAPSPTRVAVVAPMSRATSGSSLPVGINRQDFDVDCYAQRRLSGGSHSYGGESPRLSPCSSIGKLSKSDEQLSSLDRDSGQCSRNTSCETLDHYDPDYEFLQQDLSNADQIPQQTAWNLSPLPESLGESGSPFLGPPFQLPLGGHPQPDGPLAPGQQTDTAAAAAEAKRRSAASQTADGSGCRVSYERHPSQYDNISGEDLQSTAPIPSVPYAPFAAILPFQHGGSSAPVEFVGDFTAPESTGDPEKAAPAAEAKNKHMLAYMQLLEDYSEPQPSMFYQTPQNEHIYQQKNKLLMEVYGFSDSFSGVDSVQELAPAAAAAPAQRQLEPPAGKDGHPRDPSAVSGVPGKDSRDGSERAPKSPDALESAQSEEEVDELSLIDHNEIMSRLTLKQEGDDGPDVRGGSGDILLVHATETDRKDLVLYCEAFLTTYRTFISPEELIKKLQYRYEKFSPFADTFKKRVSKNTFFVLVRVVDELCLVELTEEILKLLMELVFRLVCNGELSLARVLRKNILDKVDQKKLLRCATSSQPLAARGVAARPGTLHDFHSHEIAEQLTLLDAELFYKIEIPEVLLWAKEQNEEKSPNLTQFTEHFNNMSYWVRSIIMLQEKAQDRERLLLKFIKIMKHLRKLNNFNSYLAILSALDSAPIRRLEWQKQTSEGLAEYCTLIDSSSSFRAYRAALSEVEPPCIPYLGLILQDLTFVHLGNPDYIDGKVNFSKRWQQFNILDSMRCFQQAHYDMRRNDDIINFFNDFSDHLAEEALWELSLKIKPRNITRRKTDREEKT |  |  |  |  |  | ~1000 nM |
| CrkL-SH3N-SH3C (domain or fragment, human, UniProt P46109 125-303, looked up, human CrkL, SH3N-SH3C, residues 125-303, in pETEV15b; source: E. coli BL21 (DE3), purified (IMAC, TEV digestion, SEC); not shown: His, N-terminal, cleaved) LEYVRTLYDFPGNDAEDLPFKKGEILVIIEKPEEQWWSARNKDGRVGMIPVPYVEKLVRSSPHGKHGNRNSNSYGIPEPAHAYAQPQTTTPLPAVSGSPGAAITPLPSTQNGPVFAKAIQKRVPCAYDKTALALEVGDIVKVTRMNINGQWEGEVNGRKGLFPFTHVKIFDPQNPDENE | 1100 nM |  |  |  |  |  |
| CrkL-SH3N-SH3C (residues 125-303) (domain or fragment, human, UniProt P46109 125-303, looked up) LEYVRTLYDFPGNDAEDLPFKKGEILVIIEKPEEQWWSARNKDGRVGMIPVPYVEKLVRSSPHGKHGNRNSNSYGIPEPAHAYAQPQTTTPLPAVSGSPGAAITPLPSTQNGPVFAKAIQKRVPCAYDKTALALEVGDIVKVTRMNINGQWEGEVNGRKGLFPFTHVKIFDPQNPDENE |  | 19800 nM | 12900 M⁻¹ s⁻¹ | 4.5 µM | 0.0134 s^-1 µM^-1 |  |

— PMC9896810, “Crk proteins activate the Rap1 guanine nucleotide exchange factor C3G by segregated adaptor-dependent and -independent mechanisms” (Cell Communication and Signaling : CCS, 2023)
